# Assay results: patent publication US20200071711, “MODULAR CONSTRUCTION OF SYNTHETIC GENE CIRCUITS IN MAMMALIAN CELLS USING MATHEMATICAL MODELING OF CLOSED LOOP TRANSCRIPTIONAL REPRESSORS” (Tsinghua University, published 2020)
# T1: TALER15 (synthetic, UniProt B2SU53 SEQ:1-1010)
# T1 chain: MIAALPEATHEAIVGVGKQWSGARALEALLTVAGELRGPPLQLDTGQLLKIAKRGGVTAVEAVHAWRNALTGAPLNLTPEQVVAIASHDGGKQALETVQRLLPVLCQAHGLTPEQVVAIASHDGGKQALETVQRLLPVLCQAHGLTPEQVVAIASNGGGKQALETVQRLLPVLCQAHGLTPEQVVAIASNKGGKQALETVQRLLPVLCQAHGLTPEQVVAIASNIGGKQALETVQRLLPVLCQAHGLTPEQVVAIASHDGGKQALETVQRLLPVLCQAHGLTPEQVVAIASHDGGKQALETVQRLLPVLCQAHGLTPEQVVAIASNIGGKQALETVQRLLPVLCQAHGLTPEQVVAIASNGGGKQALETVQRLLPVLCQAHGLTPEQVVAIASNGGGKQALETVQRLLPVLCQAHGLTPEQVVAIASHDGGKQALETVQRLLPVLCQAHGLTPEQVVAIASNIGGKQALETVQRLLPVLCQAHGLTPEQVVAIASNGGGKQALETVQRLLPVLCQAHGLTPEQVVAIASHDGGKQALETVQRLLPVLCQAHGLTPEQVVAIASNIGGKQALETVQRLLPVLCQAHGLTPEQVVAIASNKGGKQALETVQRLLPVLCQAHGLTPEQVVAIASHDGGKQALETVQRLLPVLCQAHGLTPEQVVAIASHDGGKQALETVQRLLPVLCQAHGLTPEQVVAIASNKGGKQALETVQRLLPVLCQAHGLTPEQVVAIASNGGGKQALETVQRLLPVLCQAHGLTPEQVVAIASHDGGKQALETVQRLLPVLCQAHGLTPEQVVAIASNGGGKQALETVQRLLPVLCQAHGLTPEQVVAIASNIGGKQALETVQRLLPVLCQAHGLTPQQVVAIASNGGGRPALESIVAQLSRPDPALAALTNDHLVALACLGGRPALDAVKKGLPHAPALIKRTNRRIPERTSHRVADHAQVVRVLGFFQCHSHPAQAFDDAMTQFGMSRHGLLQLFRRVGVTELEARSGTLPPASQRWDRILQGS
# T2: TALER17 (synthetic, UniProt B2SU53 SEQ:1-1010)
# T2 chain: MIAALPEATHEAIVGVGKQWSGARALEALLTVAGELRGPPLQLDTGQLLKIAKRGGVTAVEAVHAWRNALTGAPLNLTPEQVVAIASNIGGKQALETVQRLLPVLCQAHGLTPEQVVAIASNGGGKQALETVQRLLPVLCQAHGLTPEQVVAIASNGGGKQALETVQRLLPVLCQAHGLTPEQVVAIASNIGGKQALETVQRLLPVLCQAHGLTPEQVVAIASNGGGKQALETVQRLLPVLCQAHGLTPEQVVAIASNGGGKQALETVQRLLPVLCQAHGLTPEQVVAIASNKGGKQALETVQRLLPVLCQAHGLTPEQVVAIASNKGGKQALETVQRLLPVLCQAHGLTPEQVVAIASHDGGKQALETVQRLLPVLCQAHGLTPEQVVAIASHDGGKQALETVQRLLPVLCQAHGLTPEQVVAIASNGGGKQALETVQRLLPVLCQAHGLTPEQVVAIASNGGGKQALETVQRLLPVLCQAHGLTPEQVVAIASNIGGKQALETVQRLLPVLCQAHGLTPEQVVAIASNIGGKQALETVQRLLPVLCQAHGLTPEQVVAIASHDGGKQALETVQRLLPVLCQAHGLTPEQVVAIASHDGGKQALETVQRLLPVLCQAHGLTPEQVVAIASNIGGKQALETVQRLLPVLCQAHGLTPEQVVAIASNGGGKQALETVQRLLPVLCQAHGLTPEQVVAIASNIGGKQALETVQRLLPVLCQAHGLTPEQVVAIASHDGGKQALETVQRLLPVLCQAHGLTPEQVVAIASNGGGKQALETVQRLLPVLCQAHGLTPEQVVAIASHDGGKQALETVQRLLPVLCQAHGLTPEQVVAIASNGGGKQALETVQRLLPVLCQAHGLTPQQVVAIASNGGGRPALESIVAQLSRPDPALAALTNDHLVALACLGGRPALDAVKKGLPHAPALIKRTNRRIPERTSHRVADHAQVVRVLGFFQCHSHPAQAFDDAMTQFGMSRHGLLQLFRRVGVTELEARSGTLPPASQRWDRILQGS
# T3: TALER20 (synthetic, UniProt B2SU53 SEQ:1-1010)
# T3 chain: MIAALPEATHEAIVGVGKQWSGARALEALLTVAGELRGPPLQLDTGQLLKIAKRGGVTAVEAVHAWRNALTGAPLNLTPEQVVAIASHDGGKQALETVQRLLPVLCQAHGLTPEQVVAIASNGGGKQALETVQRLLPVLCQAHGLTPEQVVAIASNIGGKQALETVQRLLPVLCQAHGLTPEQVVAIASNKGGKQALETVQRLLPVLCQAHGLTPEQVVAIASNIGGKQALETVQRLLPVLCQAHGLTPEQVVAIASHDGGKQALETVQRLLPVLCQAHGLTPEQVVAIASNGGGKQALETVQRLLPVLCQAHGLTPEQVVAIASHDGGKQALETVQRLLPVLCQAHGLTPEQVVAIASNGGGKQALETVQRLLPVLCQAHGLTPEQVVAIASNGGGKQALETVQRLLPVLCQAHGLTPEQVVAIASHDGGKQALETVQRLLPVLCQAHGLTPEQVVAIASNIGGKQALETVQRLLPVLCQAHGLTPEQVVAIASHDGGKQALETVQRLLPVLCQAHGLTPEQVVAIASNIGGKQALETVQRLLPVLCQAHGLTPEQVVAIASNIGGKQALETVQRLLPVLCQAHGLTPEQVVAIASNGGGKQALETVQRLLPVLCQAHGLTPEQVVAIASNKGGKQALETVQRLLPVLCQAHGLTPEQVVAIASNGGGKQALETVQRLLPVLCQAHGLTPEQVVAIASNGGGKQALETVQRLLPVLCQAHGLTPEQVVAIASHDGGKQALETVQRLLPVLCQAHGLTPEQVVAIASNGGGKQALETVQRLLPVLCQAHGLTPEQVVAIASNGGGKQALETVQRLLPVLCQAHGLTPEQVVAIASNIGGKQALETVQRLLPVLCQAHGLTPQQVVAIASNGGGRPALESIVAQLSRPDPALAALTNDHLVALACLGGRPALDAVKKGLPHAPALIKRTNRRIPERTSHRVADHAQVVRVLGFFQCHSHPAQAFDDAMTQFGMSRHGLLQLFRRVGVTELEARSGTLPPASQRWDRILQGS
# T4: TALER12 (synthetic, UniProt Q56830 SEQ:262-1344)
# T4 chain: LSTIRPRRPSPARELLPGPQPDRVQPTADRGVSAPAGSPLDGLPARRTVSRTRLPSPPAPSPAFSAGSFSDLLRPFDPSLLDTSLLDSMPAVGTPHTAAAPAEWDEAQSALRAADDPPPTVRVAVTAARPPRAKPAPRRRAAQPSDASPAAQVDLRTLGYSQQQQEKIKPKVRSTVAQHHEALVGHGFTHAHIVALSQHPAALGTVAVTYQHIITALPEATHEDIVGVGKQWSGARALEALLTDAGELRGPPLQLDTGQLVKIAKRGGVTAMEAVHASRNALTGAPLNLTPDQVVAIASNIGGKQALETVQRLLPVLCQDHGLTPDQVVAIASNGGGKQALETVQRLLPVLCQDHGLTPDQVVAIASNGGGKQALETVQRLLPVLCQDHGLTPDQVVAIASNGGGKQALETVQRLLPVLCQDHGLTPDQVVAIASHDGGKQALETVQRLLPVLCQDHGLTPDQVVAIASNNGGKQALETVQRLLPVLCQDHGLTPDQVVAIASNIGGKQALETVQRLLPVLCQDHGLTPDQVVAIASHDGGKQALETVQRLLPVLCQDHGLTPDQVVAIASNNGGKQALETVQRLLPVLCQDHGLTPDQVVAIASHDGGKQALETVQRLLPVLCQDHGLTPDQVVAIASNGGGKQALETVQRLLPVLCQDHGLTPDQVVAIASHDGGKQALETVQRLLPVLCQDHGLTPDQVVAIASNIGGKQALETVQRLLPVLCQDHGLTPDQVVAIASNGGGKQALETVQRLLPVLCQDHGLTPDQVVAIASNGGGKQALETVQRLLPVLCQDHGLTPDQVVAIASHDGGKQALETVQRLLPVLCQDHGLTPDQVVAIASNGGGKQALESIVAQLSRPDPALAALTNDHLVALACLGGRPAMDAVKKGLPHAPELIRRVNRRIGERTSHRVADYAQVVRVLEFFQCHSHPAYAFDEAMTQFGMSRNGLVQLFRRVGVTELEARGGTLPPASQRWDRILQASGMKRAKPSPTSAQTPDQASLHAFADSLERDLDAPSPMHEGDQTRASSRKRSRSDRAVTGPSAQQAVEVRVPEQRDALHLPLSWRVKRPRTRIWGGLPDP
# T5: TALER18 (synthetic, UniProt B2SU53 SEQ:1-1010)
# T5 chain: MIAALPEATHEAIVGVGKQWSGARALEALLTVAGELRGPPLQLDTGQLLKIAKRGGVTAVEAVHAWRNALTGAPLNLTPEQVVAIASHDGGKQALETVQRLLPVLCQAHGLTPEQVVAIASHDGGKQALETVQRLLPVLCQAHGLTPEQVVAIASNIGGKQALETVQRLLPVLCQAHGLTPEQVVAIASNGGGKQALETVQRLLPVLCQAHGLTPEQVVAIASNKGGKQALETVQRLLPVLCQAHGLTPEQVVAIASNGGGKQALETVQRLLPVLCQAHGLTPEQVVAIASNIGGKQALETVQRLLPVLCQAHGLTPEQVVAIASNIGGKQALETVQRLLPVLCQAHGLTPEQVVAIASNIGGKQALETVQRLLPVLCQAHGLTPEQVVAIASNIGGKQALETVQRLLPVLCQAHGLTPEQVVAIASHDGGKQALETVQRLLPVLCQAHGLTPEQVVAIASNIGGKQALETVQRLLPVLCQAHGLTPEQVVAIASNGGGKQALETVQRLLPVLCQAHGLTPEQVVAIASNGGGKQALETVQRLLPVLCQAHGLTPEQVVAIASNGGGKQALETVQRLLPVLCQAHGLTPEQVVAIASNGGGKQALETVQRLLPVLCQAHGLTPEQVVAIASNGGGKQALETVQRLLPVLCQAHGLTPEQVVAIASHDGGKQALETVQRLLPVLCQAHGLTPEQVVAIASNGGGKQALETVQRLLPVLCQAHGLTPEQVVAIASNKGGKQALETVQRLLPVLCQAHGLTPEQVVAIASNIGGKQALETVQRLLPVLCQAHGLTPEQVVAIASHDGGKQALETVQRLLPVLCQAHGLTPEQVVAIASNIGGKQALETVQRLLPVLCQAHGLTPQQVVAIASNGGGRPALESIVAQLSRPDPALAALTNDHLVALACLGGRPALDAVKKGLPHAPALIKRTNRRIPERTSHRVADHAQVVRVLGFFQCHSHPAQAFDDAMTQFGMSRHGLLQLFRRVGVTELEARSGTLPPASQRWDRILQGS
# Experiments:
# Experiment in all cases: cell_activity; HEK293, two sites flanking CMVmini
# Conditions in all cases: tags: EYFP-2A upstream, SV40 NLS
# TALER15 = biological target: T1, TALER15
# TALER17 = biological target: T2, TALER17
# TALER20 = biological target: T3, TALER20
# TALER12 = biological target: T4, TALER12
# TALER18 = biological target: T5, TALER18
binder,measurement,setting,value
T15 site (dsDNA) DNA 1: TCCTGACCATTCATCAGCCGTCTAT DNA 2: ATAGACGGCTGATGAATGGTCAGGA,binding signal,TALER15,13.7 fold repression
T17 site (dsDNA) DNA 1: TATTATTGGCCTTAACCATACTCTT DNA 2: AAGAGTATGGTTAAGGCCAATAATA,binding signal,TALER17,195 fold repression
T20 site (dsDNA) DNA 1: TCTAGACTCTTCACAATGTTCTTAT DNA 2: ATAAGAACATTGTGAAGAGTCTAGA,binding signal,TALER20,12.3 fold repression
T12 site (dsDNA) DNA 1: TATTTCGACGCTCATTCT DNA 2: AGAATGAGCGTCGAAATA,binding signal,TALER12,1220 fold repression
T18 site (dsDNA) DNA 1: TCCATGTAAAACATTTTTCTGACAT DNA 2: ATGTCAGAAAAATGTTTTACATGGA,binding signal,TALER18,18.5 fold repression
